According to patent publication US20110135573A1 (DYAX, published 2011):

Legend:
[1] = biological target: T1, Human MMP-9 catalytic domain (BIOMOL, SE-244) (human, UniProt P14780 107-457, limits assumed); assay: Ki,app, enzyme inhibition assay (fluorogenic peptide substrate), IgG
T1 construct: domain: catalytic domain; also called Cat-huMMP-9; cat-huMMP-9

[2] = biological target: T2, human MMP-2 (Biomol #SE-237) (human, UniProt P08253 110-452, limits assumed); assay: as above
T2 construct: also called hMMP-2
T2 sequence (P08253 110-452 limits assumed): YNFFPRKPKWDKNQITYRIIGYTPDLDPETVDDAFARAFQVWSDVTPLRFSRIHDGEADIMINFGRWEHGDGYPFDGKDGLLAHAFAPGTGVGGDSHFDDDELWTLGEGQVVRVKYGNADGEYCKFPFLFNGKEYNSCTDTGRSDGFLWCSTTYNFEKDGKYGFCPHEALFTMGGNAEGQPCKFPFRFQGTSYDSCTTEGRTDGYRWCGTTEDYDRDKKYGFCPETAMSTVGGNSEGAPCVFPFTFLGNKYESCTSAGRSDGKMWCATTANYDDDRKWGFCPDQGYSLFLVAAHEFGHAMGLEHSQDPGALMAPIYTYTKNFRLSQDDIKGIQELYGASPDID

[3] = biological target: T3, Mouse MMP-9 (R&D, 909-MM), APMA-activated (mouse, UniProt P41245 108-730, limits assumed); assay: as above
T3 construct: also called mMMP-9; mouse MMP-9 (R&D Systems #909-MM-010)
T3 sequence (P41245 108-730 limits assumed): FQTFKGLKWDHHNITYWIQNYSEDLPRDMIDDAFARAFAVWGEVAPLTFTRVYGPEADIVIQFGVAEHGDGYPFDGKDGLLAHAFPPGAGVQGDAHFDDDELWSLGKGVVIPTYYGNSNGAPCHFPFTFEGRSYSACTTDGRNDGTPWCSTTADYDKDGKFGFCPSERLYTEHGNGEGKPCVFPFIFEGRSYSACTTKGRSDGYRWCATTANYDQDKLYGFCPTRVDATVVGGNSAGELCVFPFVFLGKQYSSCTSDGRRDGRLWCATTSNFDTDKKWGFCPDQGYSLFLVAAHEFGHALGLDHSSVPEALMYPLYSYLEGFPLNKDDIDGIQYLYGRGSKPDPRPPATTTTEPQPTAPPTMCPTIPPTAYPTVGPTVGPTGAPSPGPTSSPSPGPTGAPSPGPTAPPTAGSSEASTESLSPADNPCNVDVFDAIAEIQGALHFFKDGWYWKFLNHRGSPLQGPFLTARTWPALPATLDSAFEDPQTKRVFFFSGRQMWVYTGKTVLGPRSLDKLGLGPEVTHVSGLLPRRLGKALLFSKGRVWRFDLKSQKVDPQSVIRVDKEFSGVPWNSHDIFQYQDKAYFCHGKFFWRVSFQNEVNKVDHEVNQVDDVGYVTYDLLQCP

[4] = biological target: T1, Human MMP-9 catalytic domain (BIOMOL, …); assay: Ki,app, enzyme inhibition assay (fluorogenic peptide substrate), small-scale sFab
Protocol: (§1) Target enzymes were incubated with inhibitor for two hours at 30° C. in reaction buffer (50 mM Tris-HCl pH 7.5, 150 mM NaCl, 5 mM CaCl₂, 0.05% Brij-35) in a total volume of 90 μL using a white 96 well plate (Costar). […] An anti-MMP-2 antibody (R&D Systems polyclonal IgG #AF902) was similarly tested with 200 nM as the highest inhibitor concentration. Reactions were initiated by the addition of 10 μL of a 10× concentrated stock of substrate, Mca-Lys-Pro-Leu-Gly-Leu-Dap(Dnp)-Ala-Arg-NH2, (Bachem M-2350), at final concentration of 10 μM and monitored at 30° C. in a Molecular Devices' Gemini fluorescence plate reader. The excitation and emission wavelengths were set at 328 nm and 393 nm, respectively. Kinetic data were acquired by the increase in fluorescence, and initial rates for each condition were plotted against the total inhibitor concentration. Reactions were performed in duplicates and all data replicates were plotted in a single graph and fit to the following equation¹: […]

[5] = biological target: T2, human MMP-2 (Biomol #SE-237); assay: as above
Protocol: as §1

[6] = biological target: T3, Mouse MMP-9 (R&D, 909-MM), …; assay: as above
Protocol: as §1

[7] = biological target: T1, Human MMP-9 catalytic domain (BIOMOL, …); assay: Ki,app, enzyme inhibition assay (fluorogenic peptide substrate), medium-scale sFab
Protocol: as §1

[8] = biological target: T2, human MMP-2 (Biomol #SE-237); assay: as above
Protocol: as §1

T1 sequence (P14780 107-457 limits assumed): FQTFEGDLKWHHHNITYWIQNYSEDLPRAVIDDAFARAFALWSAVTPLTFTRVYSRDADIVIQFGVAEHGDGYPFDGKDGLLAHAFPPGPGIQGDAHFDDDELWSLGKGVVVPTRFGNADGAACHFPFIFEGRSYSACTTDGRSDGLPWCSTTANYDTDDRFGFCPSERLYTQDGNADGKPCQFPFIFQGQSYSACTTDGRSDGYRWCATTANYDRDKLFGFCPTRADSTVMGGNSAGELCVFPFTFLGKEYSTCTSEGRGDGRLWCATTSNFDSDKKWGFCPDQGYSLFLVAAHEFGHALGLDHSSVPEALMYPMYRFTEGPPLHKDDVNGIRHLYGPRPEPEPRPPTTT

Ki [1] [nM] | Ki [2] [nM] | Ki [3] [nM] | Ki [4] [nM] | Ki [5] [nM] | Ki [6] [nM] | Ki [7] [nM] | Ki [8] [nM] | Binder
0.08 | 0.31 | 0.24 | – | – | – | – | – | X0106-B02 (antibody, V domains shown, Produced and tested as IgG1; germlined, optimized version of M0276-F11) VH: EVQLLESGGGLVQPGGSLRLSCAASGFTFSWYDMWWVRQAPGKGLEWVSVIYSSGGPTFYADSVKGRFTISRDNSKNTLYLQMNSLRAEDTAVYYCAKDRAYGDYVGWNGFDYWGQGTLVTVSS VL: EIVLTQSPATLSLSPGERATLSCRASQSISSFLAWYQQKPGQAPRLLIYDASYRATGIPARFSGSGSGTDFTLTISSLEPEDFAVYYCQQRGNWPITFGQGTRLEIK
0.13 | 0.38 | 0.23 | – | – | – | – | – | X0106-E04 (antibody, V domains shown, Produced and tested as IgG1; germlined, optimized version of M0275-D03; also called X0106-E4) VH: EVQLLESGGGLVQPGGSLRLSCAASGFTFSQYDMWWVRQAPGKGLEWVSVIYPSGTTFYADSVKGRFTISRDNSKNTLYLQMNSLRAEDTAVYYCAKDRAYGDYVGWNGFDYWGQGTLVTVSS VL: EIVLTQSPATLSLSPGERATLSCRASQSISSFLAWYQQKPGQAPRLLIYDASYRATGIPARFSGSGSGTDFTLTISSLEPEDFAVYYCQQRGNWPITFGQGTRLEIK
0.15 | 0.3 | 0.1 | – | – | – | – | – | X0106-F05 (antibody, V domains shown, Produced and tested as IgG1; germlined, optimized version of M0307-F04) VH: EVQLLESGGGLVQPGGSLRLSCAASGFTFSLYDMWWVRQAPGKGLEWVSVIYSSGGYTGYADSVKGRFTISRDNSKNTLYLQMNSLRAEDTAVYYCAKDRAYGDYVGWNGFDYWGQGTLVTVSS VL: EIVLTQSPATLSLSPGERATLSCRASQSISSFLAWYQQKPGQAPRLLIYDASYRATGIPARFSGSGSGTDFTLTISSLEPEDFAVYYCQQRGNWPITFGQGTRLEIK
– | – | – | 0.7 | > 5 | – | – | – | M0299-C09 (Fab, V domains shown, sFab; variable domains only; also called M299-C09) VH: EVQLLESGGGLVQPGGSLRLSCAASGFTFSNYPMWWVRQAPGKGLEWVSYIVPSGGATFYADSVKGRFTISRDNSKNTLYLQMNSLRAEDTAVYYCAKDRAYGDYVGWNGFDYWGQGTLVTVSS VL: DIQMTQSPATLSLSPGERATLSCRASQSISSFLAWYQQKPGQAPRLLIYDASYRATGIPARFSGSGSGTDFTLTISSLEPEDYAVYYCQQRGNWPITFGQGTRLEIK
– | – | – | 0.3 | 0.9 | 1 | 0.4 | 0.5 | M0275-E12 (Fab, V domains shown, sFab; variable domains only; also called M275-E12) VH: EVQLLESGGGLVQPGGSLRLSCAASGFTFSHYDMWWVRQAPGKGLEWVSVIYSSGGFTGYADSVKGRFTISRDNSKNTLYLQMNSLRAEDTAVYYCAKDRAYGDYVGWNGFDYWGQGTLVTVSS VL: DIQMTQSPATLSLSPGERATLSCRASQSISSFLAWYQQKPGQAPRLLIYDASYRATGIPARFSGSGSGTDFTLTISSLEPEDYAVYYCQQRGNWPITFGQGTRLEIK
– | – | – | 0.4 | – | – | – | – | M0272-H08 (Fab, V domains shown, sFab; variable domains only; also called M272-H08) VH: EVQLLESGGGLVQPGGSLRLSCAASGFTFSAYDMWWVRQAPGKGLEWVSVIYPSGGTTFYADSVKGRFTISRDNSKNTLYLQMNSLRAEDTAVYYCAKDRAYGDYVGWNGFDYWGQGTLVTVSS VL: DIQMTQSPATLSLSPGERATLSCRASQSISSFLAWYQQKPGQAPRLLIYDASYRATGIPARFSGSGSGTDFTLTISSLEPEDYAVYYCQQRGNWPITFGQGTRLEIK
– | – | – | 0.9 | – | – | 1 | 2 | M0273-C10 (Fab, V domains shown, sFab; variable domains only; also called M273-C10) VH: EVQLLESGGGLVQPGGSLRLSCAASGFTFSFYPMWWVRQAPGKGLEWVSYIYPSGGATFYADSVKGRFTISRDNSKNTLYLQMNSLRAEDTAVYYCAKDRAYGDYVGWNGFDYWGQGTLVTVSS VL: DIQMTQSPATLSLSPGERATLSCRASQSISSFLAWYQQKPGQAPRLLIYDASYRATGIPARFSGSGSGTDFTLTISSLEPEDYAVYYCQQRGNWPITFGQGTRLEIK
– | – | – | 0.6 | – | – | 0.8 | 2.7 | M0273-A11 (Fab, V domains shown, sFab; variable domains only; also called M273-A11) VH: EVQLLESGGGLVQPGGSLRLSCAASGFTFSRYDMWWVRQAPGKGLEWVSVISPSGGATFYADSVKGRFTISRDNSKNTLYLQMNSLRAEDTAVYYCAKDRAYGDYVGWNGFDYWGQGTLVTVSS VL: DIQMTQSPATLSLSPGERATLSCRASQSISSFLAWYQQKPGQAPRLLIYDASYRATGIPARFSGSGSGTDFTLTISSLEPEDYAVYYCQQRGNWPITFGQGTRLEIK
– | – | – | 0.9 | 1 | 2.8 | – | – | M0306-D04 (Fab, V domains shown, sFab; variable domains only; also called M306-D04) VH: EVQLLESGGGLVQPGGSLRLSCAASGFTFSLYPMWWVRQAPGKGLEWVSSIYPSGGATFYADSVKGRFTISRDNSKNTLYLQMNSLRAEDTAVYYCAKDRAYGDYVGWNGFDYWGQGTLVTVSS VL: DIQMTQSPATLSLSPGERATLSCRASQSISSFLAWYQQKPGQAPRLLIYDASYRATGIPARFSGSGSGTDFTLTISSLEPEDYAVYYCQQRGNWPITFGQGTRLEIK
– | – | – | 0.3 | 0.5 | – | 0.5 | 1 | M0301-A09 (Fab, V domains shown, sFab; variable domains only; also called M301-A09) VH: EVQLLESGGGLVQPGGSLRLSCAASGFTFSYYDMWWVRQAPGKGLEWVSVIYPSGGYTAYADSVKGRFTISRDNSKNTLYLQMNSLRAEDTAVYYCAKDRAYGDYVGWNGFDYWGQGTLVTVSS VL: DIQMTQSPATLSLSPGERATLSCRASQSISSFLAWYQQKPGQAPRLLIYDASYRATGIPARFSGSGSGTDFTLTISSLEPEDYAVYYCQQRGNWPITFGQGTRLEIK
– | – | – | 1 | 1.2 | – | 1.7 | > 10 | M0301-D12 (Fab, V domains shown, sFab; variable domains only; also called M301-D12) VH: EVQLLESGGGLVQPGGSLRLSCAASGFTFSMYDMWWVRQAPGKGLEWVSVIYSSGGYTSYADSVKGRFTISRDNSKNTLYLQMNSLRAEDTAVYYCAKDRAYGDYVGWNGFDYWGQGTLVTVSS VL: DIQMTQSPATLSLSPGERATLSCRASQSISSFLAWYQQKPGQAPRLLIYDASYRATGIPARFSGSGSGTDFTLTISSLEPEDYAVYYCQQRGNWPITFGQGTRLEIK
– | – | – | 0.7 | – | – | – | – | M0273-B10 (Fab, V domains shown, sFab; variable domains only; also called M273-B10) VH: EVQLLESGGGLVQPGGSLRLSCAASGFTFSKYAMIWVRQAPGKGLEWVSWIPPSGGYTSYADSVKGRFTISRDNSKNTLYLQMNSLRAEDTAVYYCAKDRAYGDYVGWNGFDYWGQGTLVTVSS VL: DIQMTQSPATLSLSPGERATLSCRASQSISSFLAWYQQKPGQAPRLLIYDASYRATGIPARFSGSGSGTDFTLTISSLEPEDYAVYYCQQRGNWPITFGQGTRLEIK
0.14 | 0.42 | 0.22 | – | – | – | – | – | X0106-C03 (antibody, V domains shown, Produced and tested as IgG1; germlined, optimized version of M0274-G08; printed as X0106-C04 in some sentences; also called X0106-C04) VH: EVQLLESGGGLVQPGGSLRLSCAASGFTFSVYDMWWVRQAPGKGLEWVSVIYPSGGATYYADSVKGRFTISRDNSKNTLYLQMNSLRAEDTAVYYCAKDRAYGDYVGWNGFDYWGQGTLVTVSS VL: EIVLTQSPATLSLSPGERATLSCRASQSISSFLAWYQQKPGQAPRLLIYDASYRATGIPARFSGSGSGTDFTLTISSLEPEDFAVYYCQQRGNWPITFGQGTRLEIK
– | – | – | 0.2 | 1.7 | – | 0.6 | 1.7 | M0299-A12 (Fab, V domains shown, sFab; variable domains only; also called M299-A12) VH: EVQLLESGGGLVQPGGSLRLSCAASGFTFSHYPMWWVRQAPGKGLEWVSYISSSGGGTFYADSVKGRFTISRDNSKNTLYLQMNSLRAEDTAVYYCAKDRAYGDYVGWNGFDYWGQGTLVTVSS VL: DIQMTQSPATLSLSPGERATLSCRASQSISSFLAWYQQKPGQAPRLLIYDASYRATGIPARFSGSGSGTDFTLTISSLEPEDYAVYYCQQRGNWPITFGQGTRLEIK
– | – | – | 0.6 | – | – | 0.6 | 1 | M0273-G07 (Fab, V domains shown, sFab; variable domains only; also called M273-G07) VH: EVQLLESGGGLVQPGGSLRLSCAASGFTFSHYDMWWVRQAPGKGLEWVSVIYPSGGPTYYADSVKGRFTISRDNSKNTLYLQMNSLRAEDTAVYYCAKDRAYGDYVGWNGFDYWGQGTLVTVSS VL: DIQMTQSPATLSLSPGERATLSCRASQSISSFLAWYQQKPGQAPRLLIYDASYRATGIPARFSGSGSGTDFTLTISSLEPEDYAVYYCQQRGNWPITFGQGTRLEIK
